Experiments:
[1] = target: full-length SARS-CoV-2 spike protein (amino acids M1-T1273 of accession number YP_009724390.1) on Ju (SARS-CoV-2) (UniProt P0DTC2); assay: cell-based or functional assay
[2] = target: human FcγR3a 176Val allotype receptor (human) (UniProt P08637); assay: cell-based or functional assay
[3] = target: SARS-CoV-2 spike protein on VSV-SARS-CoV-2-S pseudovirus (SARS-CoV-2) (UniProt P0DTC2); assay: cell-based or functional assay
[4] = target: MOD6-SARS-CoV-2 Spike Protein (RBD)(R319-F541).mmH (SARS-CoV-2); assay: Luminex beads, supernatant
[5] = target: MOD3-SARS-CoV-2 Spike Protein (RBD)(R319-F541).mmH (SARS-CoV-2); assay: Luminex beads, supernatant
[6] = target: MOD13-SARS-CoV-2 Spike Protein (RBD)(R319-F541).mmH (SARS-CoV-2); assay: Luminex beads, supernatant
[7] = target: MOD15-SARS-CoV-2 Spike Protein (RBD)(R319-F541).mmH (SARS-CoV-2); assay: Luminex beads, supernatant
[8] = target: MOD4-SARS-CoV-2 Spike Protein (RBD)(R319-F541).mmH (SARS-CoV-2); assay: Luminex beads, supernatant
[9] = target: MOD9-SARS-CoV-2 Spike Protein (RBD)(R319-F541).mmH (SARS-CoV-2); assay: Luminex beads, supernatant
[10] = target: MOD12-SARS-CoV-2 Spike Protein (RBD)(R319-F541).mmH (SARS-CoV-2); assay: Luminex beads, supernatant
[11] = target: MOD11-SARS-CoV-2 Spike Protein (RBD)(R319-F541).mmH (SARS-CoV-2); assay: Luminex beads, supernatant
[12] = target: MOD5-SARS-CoV-2 Spike Protein (RBD)(R319-F541).mmH (SARS-CoV-2); assay: Luminex beads, supernatant
[13] = target: MOD1-SARS-CoV-2 Spike Protein (RBD)(R319-F541).mmH (SARS-CoV-2); assay: Luminex beads, supernatant
[14] = target: MOD7-SARS-CoV-2 Spike Protein (RBD)(R319-F541).mmH (SARS-CoV-2); assay: Luminex beads, supernatant
[15] = target: MOD2-SARS-CoV-2 Spike Protein (RBD)(R319-F541).mmH (SARS-CoV-2); assay: Luminex beads, supernatant
[16] = target: MOD14-SARS-CoV-2 Spike Protein (RBD)(R319-F541).mmH (SARS-CoV-2); assay: Luminex beads, supernatant
[17] = target: MOD8-SARS-CoV-2 Spike Protein (RBD)(R319-F541).mmH (SARS-CoV-2); assay: Luminex beads, supernatant
[18] = target: MOD10-SARS-CoV-2 Spike Protein (RBD)(R319-F541).mmH (SARS-CoV-2); assay: Luminex beads, supernatant
[19] = target: MERS.hFc (mAb2664-L1) (MERS-CoV) (UniProt K9N5Q8); assay: Luminex bead binding, supernatant
[20] = target: MERS.mFc (mAb2663-L1) (MERS-CoV) (UniProt K9N5Q8); assay: Luminex bead binding, supernatant
[21] = target: Bt-MERS.hFc (mAb2664-L2) (MERS-CoV) (UniProt K9N5Q8); assay: Luminex bead binding, supernatant
[22] = target: SARS-CoV-2 spike protein, Wuhan-Hu-1 sequence (S-wt), on VSV pseudoparticles (SARS-CoV-2) (UniProt P0DTC2); assay: cell-based or functional assay
[23] = target: SARS-CoV-2 spike protein (S-wt, Wuhan-Hu-1, NCBI Accession Number MN908947.3) on VSV pseudoparticles (SARS-CoV-2) (UniProt P0DTC2); assay: cell-based or functional assay

human FcγR3a 176Val allotype receptor (human), sequence (P08637 17-254 F176V): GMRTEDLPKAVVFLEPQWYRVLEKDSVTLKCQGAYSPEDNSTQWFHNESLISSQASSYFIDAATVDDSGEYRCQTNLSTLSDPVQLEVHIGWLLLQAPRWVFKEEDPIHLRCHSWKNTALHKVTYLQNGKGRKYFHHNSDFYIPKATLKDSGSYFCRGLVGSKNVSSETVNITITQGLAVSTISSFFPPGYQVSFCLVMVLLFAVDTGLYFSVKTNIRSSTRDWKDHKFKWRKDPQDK

Row | Substance | ADCC (Activity (%) (of positive control)) [2] | ADCC Mean RLU (surrogate reporter assay, spike-expressing target cells) [2] | Neutralization (1:100 dilution) [3] | Binding signal (MFI) [4] | Binding signal (MFI) [5] | Binding signal (MFI) [7] | Binding signal (MFI) [8] | Binding signal (MFI) [9] | Binding signal (MFI) [10] | Binding signal (MFI) [11] | Binding signal (MFI) [12] | Binding signal (MFI) [14] | Binding signal (MFI) [15] | Binding signal (MFI) [16] | Binding signal (MFI) [17] | Binding signal (MFI) [18] | Binding signal (MFI) [19] | Binding signal (MFI) [20] | Binding signal (MFI) [21] | IC50 (M), neutralization [23] | further results
1 | IgG1 Isotype Control (antibody) |  |  |  |  |  |  |  |  |  |  |  |  |  |  |  |  |  |  |  |  | ADCP Max (% ADCP), Jurkat/hCD20/SARS-CoV-2 Spike cells [1]: 10.4%
2 | mAb10933 (antibody) | 68.5% | 9740 RLU | 88.4% |  |  |  |  |  |  |  |  |  |  |  |  |  |  |  |  |  | 
3 | mAb10934 (antibody) |  | 11700 RLU |  | 30800 MFI | 25100 MFI | 27800 MFI | 31700 MFI | 31300 MFI | 32900 MFI | 30700 MFI | 6650 MFI | 29900 MFI | 27700 MFI | 28600 MFI | 6410 MFI | 30400 MFI |  |  |  |  | Binding signal (MFI) [6]: 30500 MFI; Binding signal (MFI) [13]: 81 MFI
4 | mAb10987 (antibody) | 29.4% | 12000 RLU | 94.6% |  |  |  |  |  |  |  |  |  |  |  |  |  | 235 MFI | 196 MFI | 172 MFI | 4.06e-11 M | Relative neutralization (5 µg/ml, Vero cells) [22]: 100%; Neutralization (1:4 dilution) [3]: 99.3%; Neutralization (1:20 dilution) [3]: 97.7%
5 | mAb10989 (antibody) | 21.5% | 10200 RLU | 98.2% | 19600 MFI | 18300 MFI | 15900 MFI | 15800 MFI | 17800 MFI | 15100 MFI | 16800 MFI | 3370 MFI | 15200 MFI | 16700 MFI | 18100 MFI | 6140 MFI | 15500 MFI | 206 MFI | 161 MFI | 186 MFI | 7.23e-12 M | Neutralization (1:4 dilution) [3]: 100%; Neutralization (1:20 dilution) [3]: 99.8%

Source: US20240043504A1
